Assay results reported in the supplement of paper PMC10567573.

B1: ZNF649 (parent)
chain: MTKAQESLTLEDVAVDFTWEEWQF
B2: LOXL2 (parent)
chain: YVEVKEGKTWKQICDKHWTAKNSR

Variants of: B1
Test: protein stability index of a GFP-peptide fusion (GPS, HEK-293T) (PSI 1-6); higher = more stable
Settings: c terminus: a fixed tail appended
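Also: lentivirally expressed fusions sorted by FACS into six bins by GFP to DsRed ratio, PSI derived from sequencing read proportions per bin multiplied by bin number.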

Protein stability index: each site, then its substitutions
W19: F 3.19, C 3.85, I 2.56, D 4.65, Q 4.43, G 4.61, S 4.29, K 3.58, L 3, V 3.68, H 3.6, M 3.77, P 4.43, Y 3.61, N 4.37, A 4.51, E 4.66, T 4.07, R 4.07
W22: A 4.17, R 3.69, K 4.76, Q 4.16, S 4.78, F 3.41, H 4.13, Y 3.44, G 4.33, D 4.64, E 4.52, C 3.12, M 3.72, V 3.96, N 4.27, I 3.54, T 4.28, L 3.62, P 4.4
E21: F 3.42, S 2.11, D 3.36, V 2.81, N 1.54, T 2.21, Q 3.08, C 1.58, A 2.12, G 1.49, L 1.23, H 1.53, Y 1.95, K 1.95, W 2.72, M 2.25, R 3.17, P 1.89
Q23: N 2.74, Y 2.38, I 1.97, H 2.02, G 2.87, V 2.08, E 3.46, C 2.26, M 2.72, F 2.66, L 2.05, A 4.2, P 3.22, D 3.51, R 3.56, T 3.1, K 3.28, S 3.06
T18: H 2.63, V 1.95, K 2.48, E 3.32, I 2.41, L 2.26, M 2.39, F 1.79, P 3.16, W 1.51, G 3.37, Y 1.36, R 2.17, Q 2.75, S 3.15, N 3.47
F24: L 3.83, D 4.57, W 2.88, Y 3.4, M 4.49, T 3.94, A 4.61, R 4.34, C 3.99, N 4.35, P 3.9, H 4.01, K 4.87, G 4.45, V 3.77, S 3.9, I 2.51, E 5.32
E20: Y 2, K 2.51, R 2.06, V 3.37, T 2.5, S 2.65, P 2.76, H 2.22, A 2.48, C 2.48, G 2.17, N 2.41, F 1.44, M 2.57, W 2.28, I 1.87, Q 2.32, D 3.14, L 1.3

Variants of: B2
Test: as above
Settings: c terminus: a fixed tail appended

Protein stability index, by site and new letter:
K5: I 2.46, M 2.33, Y 1.78, D 2.54, H 1.85, V 2.63, Q 3.01, A 3.18, G 2.46
W18: Y 1.56, C 2.54, K 2.11, S 2.05, D 3.01, T 1.94, M 2.46, H 3.04, L 2.19
T19: R 1.77, P 2.11, C 2.75, W 2.64, M 1.99, S 1.72, F 2.16
H17: R 3.35, M 2.41, E 2.3, D 1.84, P 3.06, Y 3.47, S 1.82, I 2.14, C 1.56, K 2.98, V 3.44
E6: V 3.77, R 1.84, M 2.88, K 2.89, H 2.64, D 2.9, P 2.18, Y 2.65, G 3.33
K8: P 2.63, A 2.49, T 1.55, M 1.91, Y 2.21, L 2.01, E 2.46, C 2.17
K21: Y 2.14, R 3.06, I 1.68, D 2.34, G 2.14, N 2.15, M 2.13, H 1.85, V 2.03, T 2.5, A 2.3
D15: C 1.72, K 2.94, M 2.05, T 2.26, Y 2.13, P 1.76, V 2.49, N 2.27, I 1.83, A 2.96, F 2.12, E 3.34, G 2.64, H 2.49
I13: P 3.38, E 2.33, C 2.6, Y 1.6, N 1.37
C14: K 1.45, H 4.51, P 1.98, M 2.98, R 2.33, W 4.18, A 1.77, N 1.99, D 2.4, T 2.52
E3: N 2.29, T 3.63, D 2.63, F 2.52, W 2.6, V 1.56
N22: L 1.78, K 3.05, C 1.97, T 2.54, M 2.35, F 2.29, A 3.24
Q12: Y 2.07, L 2.39, K 2.63, D 2.02, V 1.48, F 2.46, G 2.63, T 2.43, H 3.06
W10: R 2.2, I 2.3, K 2.61, T 2.91, F 2.47, V 2.78, M 2.37, Y 1.93, N 2.5
Y1: L 3.34, R 3.12, Q 3.58, H 3.14, M 3.49, C 3.36, G 3.72, T 3.21, F 3.57, P 3.68, S 3.71, V 3.4
A20: V 2.11, Y 2.27, T 2.03, S 2.73, K 2.25, H 2.07, C 2.46
R24: W 1.79, L 2.46, I 1.74, C 2.72, D 1.91, Q 2.33, S 3.24, T 3.49, F 2.94
V4: P 1.26, K 2.03, G 2.86, H 1.74, C 2.22, W 1.39
K16: Q 2.24, E 1.19, Y 2.82, D 3.38, W 2.44
G7: P 1.96, F 1.65, Y 2.18, A 1.61, Q 2.42, K 1.91, D 1.6, C 2.29, M 1.72
T9: K 2.43, Y 2.33, P 2, I 2.48, C 4.04, S 2.56, H 1.86, D 1.6, M 2.92
K11: Y 4.35, M 2.1, I 2.23, H 2.45, G 2.77, F 3.38, V 2.1, S 3.37, C 2.28
V2: G 1.98, K 3, L 2.72, M 2.96, I 2.66, H 1.55, A 1.78, Y 2.8
S23: Y 2.64, F 1.19, G 1.83, R 2.09, E 2.17, K 2.88, A 2.97, I 2.82, L 2.42
